The values that follow come from patent US20160208018A1 (JUNO THERAPEUTICS, published 2016).

Test [1] concerns the target T1, Human ROR1 (receptor tyrosine kinase-like orphan receptor 1) (human, UniProt Q01973 30-937).
T1 construct: also called hROR1; K562/ROR1
Put plainly: flow cytometry on ROR1-expressing K562 and CHOK1 cells, mean (n = 2).

For test [2], the target named is T1, Human ROR1 (receptor tyrosine …). Put plainly: flow cytometry competition, competitor R12 scFv on ROR1-expressing cells, mean (n = 3). The method, then:
(§1) Assays also were performed to assess competition of the clones with the reference antibody (R12 scFv), for binding to ROR1-expressing cells. VH clones were titrated against 2 nM Myc-R12 on ROR1/K562 cells and competition assessed with an anti-Myc-Alexa647 secondary antibody, and the half maximal inhibitory concentration (IC₅₀) determined for respective clones.
(§2) Assays also were performed to assess competition (measured as half maximal inhibitory concentration (IC₅₀)) of the clones with the R12 scFv reference antibody for binding to ROR1-expressing cells, as described in Example 1. Percent (%) max ROR1 and % max competition, as compared to the R12 scFv reference antibody, were determined as described in Example 1.
A general note: In flow cytometry, cells or beads pass a laser one at a time.

Test [3] shares this target. In words: flow cytometry on ROR1-expressing cells; predicted plateau relative to R12 scFv = 100%. The method, then: (§3) Additionally, percent (%) maximum (max) binding to ROR1-expressing cells and % max competition with the reference antibody (R12 scFv) were calculated. Percent max binding and competition values were calculated based on predicted plateaus (measured by Prism® using four parameter non-linear regression), relative to values for R12 scFv binding and inhibition, respectively, assigned as 100% in each study.
as §2

Test [4] has the same target. Put plainly: competition with R12 scFv on ROR1-expressing cells; predicted plateau relative to R12 scFv = 100%. The procedure: as §3, §2
Test [5] has the same target. In words: flow cytometry on ROR1-expressing K562 and CHOK1 cells, mean (n = 20).
For test [6] the target is unchanged. Described as above. The source holds these as a separate data set.
Test [7] has the same target. Put plainly: flow cytometry self-competition, competitor R12 scFv on ROR1-expressing cells, mean (n = 17). The procedure: as §1, §2
The target is the same in test [8]. Put plainly: flow cytometry self-competition, competitor 2 nM Myc-R12 scFv on ROR1/K562 cells, mean (n = 17). The method, then: as §1
The next test has as its target T2, Mouse ROR1 (mouse, UniProt Q9Z139 30-937).
T2 construct: also called mROR1; K562/mouse ROR1
In words: inferred from IFN-gamma release of CAR-expressing CD8+ T cells co-cultured with K562/mouse ROR1 cells. The method, then: Cytokine release was assessed following incubation of the CAR-expressing cells with either K562/human ROR1 (hROR1) or K562/mouse ROR1 (mROR1) antigen-expressing cells. Transduced CD8+ T cells were co-cultured with antigen-expressing cells at a single effector to target (E:T). The co-cultured cells were incubated for about 24 hours, and then supernatants were collected for measurement of IFN-γ using a cytokine immunoassay.

As usually defined, the EC50 is the concentration needed to bring the measured effect to its halfway point. A high value points to weaker potency. In general, IC50 refers to the concentration that gives 50% inhibition. Read a high IC50 as weaker potency.

T1 sequence (Q01973 30-937): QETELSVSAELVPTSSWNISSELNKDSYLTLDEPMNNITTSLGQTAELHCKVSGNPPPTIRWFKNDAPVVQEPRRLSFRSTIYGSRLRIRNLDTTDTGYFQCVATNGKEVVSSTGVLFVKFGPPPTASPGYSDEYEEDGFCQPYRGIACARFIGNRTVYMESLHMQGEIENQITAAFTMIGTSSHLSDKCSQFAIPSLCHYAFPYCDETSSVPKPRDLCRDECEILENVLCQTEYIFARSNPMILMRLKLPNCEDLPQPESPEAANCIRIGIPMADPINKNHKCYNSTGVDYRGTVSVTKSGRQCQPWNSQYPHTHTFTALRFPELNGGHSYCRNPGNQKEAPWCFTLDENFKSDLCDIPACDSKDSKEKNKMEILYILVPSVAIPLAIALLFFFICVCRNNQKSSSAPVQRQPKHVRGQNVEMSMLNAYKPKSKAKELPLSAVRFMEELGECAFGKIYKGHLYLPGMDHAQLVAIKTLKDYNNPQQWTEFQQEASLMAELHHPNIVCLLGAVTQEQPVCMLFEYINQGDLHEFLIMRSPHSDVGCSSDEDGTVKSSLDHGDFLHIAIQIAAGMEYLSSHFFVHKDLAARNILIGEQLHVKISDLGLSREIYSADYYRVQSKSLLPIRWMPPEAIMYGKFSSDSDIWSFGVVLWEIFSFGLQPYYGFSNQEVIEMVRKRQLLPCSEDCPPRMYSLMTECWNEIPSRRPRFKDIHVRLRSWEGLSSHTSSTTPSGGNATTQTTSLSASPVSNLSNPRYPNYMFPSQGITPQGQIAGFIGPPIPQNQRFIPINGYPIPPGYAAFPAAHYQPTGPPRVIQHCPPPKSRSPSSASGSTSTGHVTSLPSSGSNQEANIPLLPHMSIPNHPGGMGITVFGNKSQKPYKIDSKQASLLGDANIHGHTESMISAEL
T2 sequence (Q9Z139 30-937): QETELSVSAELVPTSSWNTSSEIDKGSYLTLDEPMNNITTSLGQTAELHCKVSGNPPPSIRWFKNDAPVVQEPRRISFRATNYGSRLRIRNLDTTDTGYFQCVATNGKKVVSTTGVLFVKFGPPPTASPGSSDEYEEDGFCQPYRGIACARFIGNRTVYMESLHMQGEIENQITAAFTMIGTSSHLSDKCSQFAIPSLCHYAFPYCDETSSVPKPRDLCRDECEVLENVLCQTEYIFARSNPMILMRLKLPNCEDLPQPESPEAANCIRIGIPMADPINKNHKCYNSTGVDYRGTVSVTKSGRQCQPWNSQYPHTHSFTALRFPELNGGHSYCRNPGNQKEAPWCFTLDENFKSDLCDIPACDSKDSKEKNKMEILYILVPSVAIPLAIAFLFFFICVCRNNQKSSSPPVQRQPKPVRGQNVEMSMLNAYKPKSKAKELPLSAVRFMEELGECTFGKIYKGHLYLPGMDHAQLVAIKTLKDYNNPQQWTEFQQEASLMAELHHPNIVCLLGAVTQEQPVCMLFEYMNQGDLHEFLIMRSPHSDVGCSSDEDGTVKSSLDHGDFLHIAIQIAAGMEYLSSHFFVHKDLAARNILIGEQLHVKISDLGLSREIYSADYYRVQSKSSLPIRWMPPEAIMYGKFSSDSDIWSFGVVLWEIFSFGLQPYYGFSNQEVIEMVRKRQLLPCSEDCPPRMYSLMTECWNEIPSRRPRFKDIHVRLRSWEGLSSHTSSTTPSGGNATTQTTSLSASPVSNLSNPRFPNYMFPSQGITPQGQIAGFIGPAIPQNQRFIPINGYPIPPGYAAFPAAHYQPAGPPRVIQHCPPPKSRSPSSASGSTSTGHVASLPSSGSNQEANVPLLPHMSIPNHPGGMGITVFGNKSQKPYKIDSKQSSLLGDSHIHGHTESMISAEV

B1: Clone 83 scFv (scFv)
scFv: QVQLVQSGAEVKKPGASVKVSCKASGYTFTSYYMHWVRQAPGQGLEWMGIINPSGGSTSYAQKFQGRVTMTRDTSTSTVYMELSSLRSEDTAVYYCARDSSYDAFDIWGQGTMVTVSSGGGGSGGGGSGGGGSAIQLTQSPSTLSASVGDRVTITCQASQDISNYLNWYQQKPGKAPKLLINDASYLETGVPSRFSGSGSGTDFTLTISSLQPEDIATYYCQQYESLPYTFGQGTKLEIK
The molecule B1 yielded an EC50 in test [1] of 2.5 nM. This molecule yielded an IC50 in [2] of 11.1 nM. In test [3], the “% Max Binding” value is 70%. Also, the “% Max Competition” value in [4] was 103%.

B2: R12 scFv reference antibody (scFv)
scFv: QEQLVESGGRLVTPGGSLTLSCKASGFDFSAYYMSWVRQAPGKGLEWIATIYPSSGKTYYATWVNGRFTISSDNAQNTVDLQMNSLTAADRATYFCARDSYADDGALFNIWGPGTLVTISSGGGGSGGGGSGGGGSELVLTQSPSVSAALGSPAKITCTLSSAHKTDTIDWYQQLQGEAPRYLMQVQSDGSYTKRPGVPDRFSGSSSGADRYLIIPSVQADDEADYYCGADYIGGYVFGGGTQLTVTG
notes: also called Myc-R12; rabbit anti-ROR1 antibody
Regarding B2, the half-maximal effective concentration (EC50) in test [5] and in test [6] was 0.8 nM throughout. Moreover, the IC50 in test [7] and in test [8] was 3.3 nM each time.

B3: CAR containing the rabbit anti-ROR1 (R12) scFv (VH-VL) (other)
chain: B2 scFv
notes: Control chimeric antigen receptor expressed on primary human CD8+ T cells; tEGFR marker is split off by T2A; also called R12 scFv CAR; not shown: Ig-derived hinge only spacer, human CD28-derived transmembrane domain, human 4-1BB-derived intracellular signaling domai
For B3, the binding result with Mouse ROR1 is listed as “no binding”.
